4 molecules from patent US20190389958A1 (MSM PROTEIN TECHNOLOGIES, published 2019) can be followed below.

First the molecules themselves.
T1: hCCR3 (human, UniProt P51677 1-355)
T1 construct: whole, on cells
T1 sequence (looked up): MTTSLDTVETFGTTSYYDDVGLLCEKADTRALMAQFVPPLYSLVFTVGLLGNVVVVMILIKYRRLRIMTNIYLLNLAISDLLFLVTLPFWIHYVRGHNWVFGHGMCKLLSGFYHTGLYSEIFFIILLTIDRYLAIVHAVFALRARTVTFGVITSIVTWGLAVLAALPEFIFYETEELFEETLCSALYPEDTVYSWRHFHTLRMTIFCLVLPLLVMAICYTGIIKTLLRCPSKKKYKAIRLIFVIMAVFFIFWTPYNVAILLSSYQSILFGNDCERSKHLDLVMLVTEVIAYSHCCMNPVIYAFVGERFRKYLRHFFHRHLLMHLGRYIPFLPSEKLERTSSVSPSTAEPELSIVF

T2: hCCR6 (human, UniProt P51684 1-374)
T2 construct: whole, on cells
T2 sequence (looked up): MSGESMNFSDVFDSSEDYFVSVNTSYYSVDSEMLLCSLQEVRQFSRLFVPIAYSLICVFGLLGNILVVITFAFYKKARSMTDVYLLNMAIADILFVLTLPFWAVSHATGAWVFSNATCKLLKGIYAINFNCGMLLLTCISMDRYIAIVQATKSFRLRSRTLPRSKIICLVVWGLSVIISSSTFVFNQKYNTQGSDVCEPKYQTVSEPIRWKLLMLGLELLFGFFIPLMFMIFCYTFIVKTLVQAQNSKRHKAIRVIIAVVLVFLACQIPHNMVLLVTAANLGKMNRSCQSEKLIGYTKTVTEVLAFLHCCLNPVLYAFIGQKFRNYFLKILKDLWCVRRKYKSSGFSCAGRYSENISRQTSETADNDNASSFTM

T3: hCCR4 (human, UniProt P51679 1-360)
T3 construct: whole, on cells
T3 sequence (looked up): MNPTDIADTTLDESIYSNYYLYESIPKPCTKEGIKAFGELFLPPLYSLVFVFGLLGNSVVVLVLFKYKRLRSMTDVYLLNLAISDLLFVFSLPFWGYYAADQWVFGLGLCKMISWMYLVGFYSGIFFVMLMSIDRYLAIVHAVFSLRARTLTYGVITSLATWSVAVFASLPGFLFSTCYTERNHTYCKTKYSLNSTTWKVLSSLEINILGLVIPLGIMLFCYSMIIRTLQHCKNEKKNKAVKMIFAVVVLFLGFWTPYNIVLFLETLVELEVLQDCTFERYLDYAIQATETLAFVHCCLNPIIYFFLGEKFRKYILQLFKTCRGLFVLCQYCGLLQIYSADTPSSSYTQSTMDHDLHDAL

T4: hCCR10 (human, UniProt P46092 1-362)
T4 construct: whole, on cells
T4 sequence (looked up): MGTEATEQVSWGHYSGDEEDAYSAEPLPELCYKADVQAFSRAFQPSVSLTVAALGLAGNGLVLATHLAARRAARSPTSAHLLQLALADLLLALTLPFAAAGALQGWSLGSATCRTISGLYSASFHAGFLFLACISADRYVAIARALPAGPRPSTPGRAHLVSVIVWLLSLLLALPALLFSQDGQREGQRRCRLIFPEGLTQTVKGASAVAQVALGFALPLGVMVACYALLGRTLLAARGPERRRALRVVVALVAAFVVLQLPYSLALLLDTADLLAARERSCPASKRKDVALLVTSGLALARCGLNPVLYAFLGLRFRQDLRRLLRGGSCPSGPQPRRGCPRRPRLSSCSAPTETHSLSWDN

B1: V62.1-R108H (antibody, human IgG1, V domains shown)
VH: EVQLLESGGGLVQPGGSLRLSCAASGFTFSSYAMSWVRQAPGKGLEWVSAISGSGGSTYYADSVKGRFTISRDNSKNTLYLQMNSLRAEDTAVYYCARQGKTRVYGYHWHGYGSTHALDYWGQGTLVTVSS
VL: EIVLTQSPGTLSLSPGERATLSCRASQSVSSSYLAWYQQKPGQAPRLLIYGASSRATGIPDRFSGSGSGTDFTLTISRLEPEDFAVYYCQQSDYSYPFTFGQGTKVEIKR
notes: Tested as an IgG (human IgG1 format); also called IgG1 V62.1 R108H
B2: V62.1 (antibody, human IgG1, V domains shown)
VH: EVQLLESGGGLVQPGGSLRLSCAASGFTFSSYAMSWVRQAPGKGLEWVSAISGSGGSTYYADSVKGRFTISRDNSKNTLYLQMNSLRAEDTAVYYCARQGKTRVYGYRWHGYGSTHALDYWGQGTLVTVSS
VL: B1 VL
notes: Tested as an IgG (human IgG1 format; DP47 heavy and DPK22 kappa light frameworks) made in CHO-3E7 cells; also called IgG V62.1
B3: V62.1-R108H-m80 (antibody, human IgG1, V domains shown)
VH: EVQLLESGGGLVQPGGSLRLSCAASGFTISPYSITWVRQAPGKGLEWVSQINSYNGKTYYADSVKGRFTISRDNSKNTLYLQMNSLRAEDTAVYYCARQGKTRVYGYHWHGYGSTHALDYWGQGTLVTVSS
VL: B1 VL
notes: Tested as an IgG (human IgG1 format); also called V62.1-H-m80; V62.1-R108H-m80-Wt
B4: V62.1-R108H-m47-m38 (antibody, human IgG1, V domains shown)
VH: EVQLLESGGGLVQPGGSLRLSCAASGFTFSSYAMSWVRQAPGKGLEWVSAISGSGGTRYADSVKGRFTISRDNSKNTLYLQMNSLRAEDTAVYYCARQGKTRVYGYHWHGYGSTHALDYWGQGTLVTVSS
VL: EIVLTQSPGTLSLSPGERATLSCRASQSVSSSYLAWYQQKPGQAPRLLIYGASSRATGIPDRFSGSGSGTDFTLTISRLEPEDFAVYYCQQWSSDSVTFGQGTKVEIKR
notes: Tested as an IgG (human IgG1 format); also called V62.1-H-m47-m38; IgG1 62.1-R108H-m47-m38

The first test concerns the target T1, hCCR3. Description: flow cytometry, IgG 100 nM, cells over-expressing hCCR3. As to the method:
(§1) Cells over-expressing different GPCRs other than CXCR4 and several lines transfected to over-express CXCR4 (R1610-hCXCR4, Cf2Th-hCXCR4 and CHO-hCXCR4) were compared. Cultures were incubated with a test IgG at 100 nM in FACS buffer for 40 min at 4° C. Thereafter, cells were washed twice, stained with anti-human-Fc antibody-PE conjugate (Jackson Immunoresearch Laboratories Inc., West Grove, Pa.), washed twice in FACS buffer and then transferred to FIX buffer. Fluorescence intensities were measured by GUAVA PCA-96 at 425V (in triplicate).
(§2) The expression of GPCRs other than CXCR4 was confirmed using commercially available antibodies (positive controls). For example, a commercial anti-CXCR1 antibody was used as a positive control for confirming the expression of CXCR1 on the CXCR1-transfected CHO cells.
In general terms: In flow cytometry, cells or beads pass a laser one at a time.
With B1, the MFI amounted to 4.
Molecule B2 had an MFI of 4.
B3: the MFI was determined as 2.

In the next test the target is T2, hCCR6. As to the kind of experiment: flow cytometry, IgG 100 nM, cells over-expressing hCCR6. As to the method:
as §1, §2
With B4, the MFI was 2.
The molecule B1 came in with an MFI of 3.
Molecule B2 had an MFI of 3.
On the same count and under the same terms, under B3 stands 10.

For the next test, the target named is T5, human CXCR4 (human, UniProt P61073 1-352).
T5 construct: whole, on cells; also called hCXCR4; LESTR
T5 sequence (P61073 whole entry): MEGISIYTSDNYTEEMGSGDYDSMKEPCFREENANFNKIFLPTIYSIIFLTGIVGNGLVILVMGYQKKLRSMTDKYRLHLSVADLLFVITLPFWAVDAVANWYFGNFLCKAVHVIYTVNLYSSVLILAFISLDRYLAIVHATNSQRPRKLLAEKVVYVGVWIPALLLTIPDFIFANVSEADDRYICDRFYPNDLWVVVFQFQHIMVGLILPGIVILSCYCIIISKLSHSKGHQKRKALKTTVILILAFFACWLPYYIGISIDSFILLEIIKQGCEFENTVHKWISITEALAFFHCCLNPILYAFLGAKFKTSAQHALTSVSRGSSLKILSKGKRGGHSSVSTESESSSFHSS
Description: flow cytometry, IgG 10 µg/mL, CXCR4-expressing Ramos (RA1) cells. As to the method: Binding of test IgGs to CXCR4-expressing human lymphoma cells (Ramos; RA1, ATCC® CRL-1596™) was measured by fluorescent flow cytometry-based assay. Tumor cell staining was conducted as follows: human Fcγ receptors of RA1 cells were saturated by incubation at 4° C. for 30 minutes in PBS containing 2% human serum and 0.5 mM EDTA. Cells were then incubated at 4° C. for one hour with test IgGs or a human isotypic IgG1 kappa control (Coger Sarl, Paris, France) (both antibody types at 10 μg/mL). The cells were washed with PBS and further incubated for one hour at 4° C. with a goat F(ab′)2 fragment anti-human IgG (H+L)-PE (Beckman Coulter). The cells were washed twice with PBS and fixed with 0.5% formaldehyde in PBS for analysis by flow cytometry. The data were acquired using an eleven-color flow cytometer (LSRII, BD Biosciences), and the analyses were performed with the FlowJo flow cytometry analysis software (Tree Star Inc., Ashland, Oreg.). The living cells were selected using the side scatter (SSC) and the forward scatter (FSC); 10,000 events were acquired for each analysis. MFI values were recorded using the PE channel.
Turning to B4, the MFI stood at 549.
The molecule B1 registered an MFI of 429.
Still for that read-out and setting: under B2 stands 595.
Still for that read-out and setting: in the case of B3 it was 440.

The target of another test is T3, hCCR4. Description: flow cytometry, IgG 100 nM, cells over-expressing hCCR4. The protocol: as §1, §2
The molecule B4 yielded an MFI of 2.
Same read-out and setting: under B1 stands 3.
Same read-out and setting: in the case of B2 it was 3; in that of B3, 2.

The next test addresses T5, human CXCR4. Description: cell-based or functional assay.
For B4, the “IC50 (nM), inhibition of SDF-1alpha-induced calcium flux” value came to 5 nM.
Regarding B1, the “IC50 (nM), inhibition of SDF-1alpha-induced calcium flux” value was 6.8 nM.
Regarding B2, the “IC50 (nM), inhibition of SDF-1alpha-induced calcium flux” value came to 7.4 nM.
On to B3, for which the “IC50 (nM), inhibition of SDF-1alpha-induced calcium flux” value is 7.5 nM.

The next test deals with T6, hCCR5 (human, UniProt P51681 1-352).
T6 construct: whole, on cells
T6 sequence (P51681 whole entry): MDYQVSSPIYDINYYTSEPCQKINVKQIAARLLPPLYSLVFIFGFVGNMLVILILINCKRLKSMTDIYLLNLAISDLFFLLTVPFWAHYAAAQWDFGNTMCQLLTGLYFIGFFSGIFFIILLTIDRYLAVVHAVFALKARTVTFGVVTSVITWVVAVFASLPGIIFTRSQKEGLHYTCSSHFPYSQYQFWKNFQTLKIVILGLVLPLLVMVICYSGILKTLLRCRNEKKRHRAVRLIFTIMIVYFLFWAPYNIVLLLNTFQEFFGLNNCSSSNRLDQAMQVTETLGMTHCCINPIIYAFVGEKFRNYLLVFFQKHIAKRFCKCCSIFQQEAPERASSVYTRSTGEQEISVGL
As to the kind of experiment: flow cytometry, IgG 100 nM, cells over-expressing hCCR5. The protocol: as §1, §2
B4 registered an MFI of 2.
In the case of B1, the MFI was found to be 3.
Same read-out and setting: in the case of B2 it was 4.
B3 had an MFI of 8.

For the next test, the target named is T4, hCCR10. Description: flow cytometry, IgG 100 nM, cells over-expressing hCCR10. The protocol:
as §1, §2
B4 had an MFI of 2.
The same measure, in the same setting: under B1 stands 3; under B2, 4.
Still for that read-out and setting: in the case of B3 it was 10.
